Experiment: yeast display, Sf9 membrane polyspecificity reagent, FACS + sequencing; frameworks hold sequencing errors
How it was run: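 Galactose induction of a Saccharomyces cerevisiae BJ5465 synthetic nanobody display library ran 36–48 hours. The cells were then stained for 1 hour at 4 °C with 10% biotinylated, detergent-solubilized Sf9 membrane reagent, pulled down on streptavidin microbeads and FACS-sorted into low and high (top ~1%) gates on expression and reagent-binding fluorescence. Labels for polyreactivity follow the gate of origin.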

| Sequence | polyreactivity (PSR sort gate) |
| --- | --- |
| QVQLVESGGGLVQAGGSLRLSCAASGSIFSGYAMGWYRQAPGKERELVAAITWRGGSTYYADSVKGRFTISRDNAKNTVYLQMNSLKPEDTAVYYCARVWAWSRYDYWGQGTEVTVSS | high polyreactivity |
| QVQLVESGGGLVQAGGSLRLSCAASGSIFSGYTMGWYRQAPGKERELVATISSSGGRTRYADSVKGRFTISRDNAKNTVYLQMNSLKPEDTAVYYCAAAYYVKYNSEYEYWGQGTQVTVSS | high polyreactivity |
| QVQLVESGGGLVQAGGSLRLSCAASGSIFSGYTMGWYRQAPGQERELVAAISYRGGRTYYADSVKGRFTISRDNAKNTVYLQMNSLKPEDTAVYYCNAAPYITRRHDYWGQGTQVTVSS | high polyreactivity |
| QVQLVESGGGLVQAGGSLRLSCAASGSIFSIYAMGWYRQAPGKERELVAAIDSGTSTTYADSVKGRFRISRDNAKKTVYLQMKSLKPEDTAVYYCAAALYSDVAAVATFGYYWGQGTQVTVSS | low polyreactivity |
| QVQLVESGGGLVQAGGSLRLSCAASGSIFSIYAMGWYRQAPGKERELVAAISWSGGSTYYADSVKGRFTISRDNAKNTVYLQMTSQKPEDTAVYYCLRQDYHYHPYDYWGQGTQVTVSS | low polyreactivity |
| QVQLVESGGGLVQAGGSLRLSCAASGSIFSIYAMGWYRQAPGKERELVAAITWGGGSTYYADSVKGRFTISRDNAKNTVNLQMNSLKPEDTAVYYCAADSLTWFGTYYYWGQGTQVTVSS | high polyreactivity |
| QVQLVESGGGLVQAGGSLRLSCAASGSIFSIYAMGWYRQAPGKERELVATIRRDGSTYADSVKGRFTISRDNAKNTVYLQMNSLKPEDTAVYYCNARSYHQPRDYYWGQGTQVNVSS | low polyreactivity |
| QVQLVESGGGLVQAGGSLRLSCAASGSIFSIYAMGWYRQAPGKERELVATIRVSGDRTYYADSVKGRFTISRDNAKNTVYLQMNSLKPEDTAVYYCAADFRGFYSWNFYYWGQGTQVTVSS | high polyreactivity |
| QVQLVESGGGLVQAGGSLRLSCAASGSIFSKYAMGWYRQAPGKERELVAAISGSGGDTYYADSVKGRFTISRDNAKNTVYLQMNSLKPEDTAVYFCAAEDQQNGYDYWGQGTQVTVSS | low polyreactivity |
| QVQLVESGGGLVQAGGSLRLSCAASGSIFSKYAMGWYRQAPGKEWEVVAAIRSIGGSTYYADSVMGRFTISRDNAKNTVYLQMNSRNPDDTAVYYCAARFWPAYSGWYENWGQGTQVTVSS | low polyreactivity |
| QVQLVESGGGLVQAGGSLRLSCAASGSIFSLYAMGWYRQAPGKASELVASITSSGGRTYYADSVKGRFTITRDTAKNTVYLQMNSLKPEDTAVYYCNNQPSWVGQRVHRFDYWGQGTQVTVSS | low polyreactivity |
| QVQLVESGGGLVQAGGSLRLSCAASGSIFSLYAMGWYRQAPGKERELVAAISSSGTSTYYADSVKGRFTISRDNAKNTVYLQMNSLKPEDTAVYYCNAYRRRATYNGDYWGQGTQVTVSS | high polyreactivity |
| QVQLVESGGGLVQAGGSLRLSCAASGSIFSLYAMGWYRQAPGKERELVADIRTSTGRTYYADSVKGRFTISRDNAKNTVYLQMNSLKPEDTAVYYCNADEYKSAVSVGYEYWGQGTQVTVSS | high polyreactivity |
| QVQLVESGGGLVQAGGSLRLSCAASGSIFSNNAMGLYRQAPGKVSELVASITFSGGNTYYADSVKGRFTISRDNAKNTVYLQMNSLKPEDTAVYYCNADRYPVGTAREYDSWGQGTQVTVSS | low polyreactivity |
| QVQLVESGGGLVQAGGSLRLSCAASGSIFSPNAMGWYRQAPGKERELVAGITRSGGRTYYADSVKGRFTISRDNAMNTVYLQMNSLKPEDTAVYYCAARAFSYGLKYDYWGQGTQVTVSS | high polyreactivity |
| QVQLVESGGGLVQAGGSLRLSCAASGSIFSPNVMGWYRQAPGKERELVAAINGSGSRTYYADSVKGRFTISRDNAKNTVYLQMNSLKPEDTAVYYCAAGSLGRYYFKLDYWGQGTQVTVSS | high polyreactivity |
| QVQLVESGGGLVQAGGSLRLSCAASGSIFSPYAMGWYRQAPGKERELDASISSGTSTNYADSVKGRFTISRDNAKNTVYLQMNSLKPEDTAVYYCNAGADSTVRNYVTSFSQYDYWGQGTQVTVSS | low polyreactivity |
| QVQLVESGGGLVQAGGSLRLSCAASGSIFSRNAKGWYRQAPGKERELVAAITSGGSTNYADSVKGRFTISRDNAKNTVYLQMNSLKPEDTAVYYCARGWISGFTSRYSIRVLFDYWGQGTQVTVSS | high polyreactivity |
| QVQLVESGGGLVQAGGSLRLSCAASGSIFSRYALGWYRQAPGKERELVAAISTIGGSTYYADSVKGRFTISRDNSKNTVYLQMNSLKPEDTAVYYCNARQSAALSPRYGYWGQGTQVTVSS | high polyreactivity |
| QVQLVESGGGLVQAGGSLRLSCAASGSIFSRYAMGWYRPAPGKERELVAAISRSTGSTYYADSVKGRFTISRDNAKNTVYLQMNSLKPEDTAVYYCAAKWIRWGYVSSNSRFGYWGQGTQVTVSS | high polyreactivity |
| QVQLVESGGGLVQAGGSLRLSCAASGSIFSRYAMGWYRQAPGKERELVAAINGRGSRTYYADSVKGRFTISRDNEMNTVYLQMNSLKPEDTAVYYCAAGRSRLYGPRYFIYKYNYWGQGTQVTVSS | high polyreactivity |
| QVQLVESGGGLVQAGGSLRLSCAASGSIFSRYAMGWYRQAPGKERELVAAISGRGGGTYYADSVKGRFTISRDNAKNTVYLQKNSMKPEDTAVYYCAAQLGRPAYSRVSWRAYYYWGQGTQVTVSS | low polyreactivity |

| Sequence | polyreactivity (PSR sort gate) |
| --- | --- |
| QVQLVESGGGLVQAGGSLRLSCAASGSIFSRYAMGWYRQAPGKERELVAAITWRGGSTYYADSVKGRFTISRDNAKNTVYLQMNSLKPEDTAVYYCAKDRWTYAFRVGYGYWGQGTQVTVSS | high polyreactivity |
| QVQLVESGGGLVQAGGSLRLSCAASGSIFSRYTMGWSRQAPGKERELVASISRRGGRTYYADSVKGRFTISRDNAKNTVYLQMNSLKPEDTAVYYCNTRTPAEYTPYGYDYWGQGTQVTVSS | high polyreactivity |
| QVQLVESGGGLVQAGGSLRLSCAASGSIFSRYTMGWYRQEPGKERELVAAITSSGGRTYYADSVKGRFTISRDNAKNTVYLQMNSLKPEDTAVYYCAARIPKQQGYGYWGQGTQVTVSS | high polyreactivity |
| QVQLVESGGGLVQAGGSLRLSCAASGSIFSSNAMGWYRQAPGKERELVAAITRGGRTTYADSVKGRFTISRDNAKNTVYLQMNSLKPEDTAVYYCNAESYLTGWWVDYWGQGTQVTVSS | low polyreactivity |
| QVQLVESGGGLVQAGGSLRLSCAASGSIFSSNAMGWYRQAPGSTNYADSVKGRFTISRDNAKNTVYLQMNSLKPEDTAVYYCAKDYVLFQYVDFQDDDYWGQGTQVTVSS | low polyreactivity |
| QVQLVESGGGLVQAGGSLRLSCAASGSIFSSNAMVWYRPAPGKERELVAAIDYSGGRTYYADSVKGRFTISRDNPKNTVYLQMNSLKPEDTAVYYCAKLIPVHSRYDYWGQGTQVTVSS | low polyreactivity |
| QVQLVESGGGLVQAGGSLRLSCAASGSIFSSYAKGWYLQAPGKERELVAAISQSGGDTYYADSVKGRFTISRDNAKNTVYLEMNSLKPEDSAVYYCAASVWYYPMDYWGQGSQVTVSS | low polyreactivity |
| QVQLVESGGGLVQAGGSLRLSCAASGSIFSSYALGWYRQAPGKVRELVAAITKRADRTNYADSVKGRFTISRDNAKNTVYLQMNSLKPEDTAVYYCNAEGQNDHPSNGYISYKYDYWGQGTQVTVSS | low polyreactivity |
| QVQLVESGGGLVQAGGSLRLSCAASGSIFSSYAMGWYIQAPGKEMELVAGITWGGASTYYADSVKGRFTISRDNAKNTVYLQMNSLKPEDTAVYYCNRRAWVYYAPFTVIVLYGRDYWGQGTQVTVSS | low polyreactivity |
| QVQLVESGGGLVQAGGSLRLSCAASGSIFSSYAMGWYRQAPGKERELVAAITGRDGSTYYADSVKGRFTISRDNAKNTVYLQMNILKPEDTAVYYCAASRFYFPRTFGGYPKLASYDYWGQGTQVTVSS | low polyreactivity |
| QVQLVESGGGLVQAGGSLRLSCAASGSIFSSYAMGWYRQAPGKERELVAAITRRGGSTYYADSVKGRFTISRDNAKNTVYLQMNSLKPEDTAVYYCATGITARSRYGYWGQGTQVTVSS | high polyreactivity |
| QVQLVESGGGLVQAGGSLRLSCAASGSIFSSYVMGWYRQAPGKERELVAAITSRGGSTYCADSVKGRFTISRDNAKNTVYFQMKSLKPEDTAVYYCAKGGTTWYWSGYRSIYFRYDYWGQGTQVTVSS | high polyreactivity |
| QVQLVESGGGLVQAGGSLRLSCAASGSIFSTYAMGRYRQAPGKERELVAAITFGGGTTYYADSVKGRFTISRDNAKNTVYLQMNSLKPEDTAVYYCAARYYYGSWYFYYSDKYDYWGQGTKVTVSS | low polyreactivity |
| QVQLVESGGGLVQAGGSLRLSCAASGSIFSTYAMGWYRQAPGKERELVAAISGSGGRTYYADSVKGRFTISRDNAKNTVYLQMNSLKPEDTAVYYCAADGGSVKTPGYYYWGQGTQVTVSS | high polyreactivity |
| QVQLVESGGGLVQAGGSLRLSCAASGSIFSTYAMGWYRQAPGKERELVASISRRGGSTYYADSVKGRFTISRDNAKNTVYLQMNSLKPEDTAVYYCNASGGPYRFYYWGQGTQVTVSS | low polyreactivity |
| QVQLVESGGGLVQAGGSLRLSCAASGSIFSTYAMGWYRQAPGKERELVATIRRGGSTYYADSVKGRFTISRDNAKNTVYLQMNSLKPEETAVYYCAGTVSSYPYYRYYTWGQGTQVTVSS | high polyreactivity |
| QVQLVESGGGLVQAGGSLRLSCAASGSIFSVNAMGWYRQAPGKEREFVAGISTSGGSTYYADSVKGRFTISRDNAKNTVYLQMNSLKPEDTAVYYCAKGNFLYWQVRYYRPYKSRFYYWGQGTQVTVSS | low polyreactivity |
| QVQLVESGGGLVQAGGSLRLSCAASGSIFSVNTMGWNRKAPGKERELVATIRTGDSTNYADSVKGRFTISRDNAKNSVYLQMNSLKPEDTAVYYCAAEWSSMNFDYWGQGTQVNVSS | low polyreactivity |
| QVQLVESGGGLVQAGGSLRLSCAASGSIFSVYAMGWYRQAPGKEREFVASISGGSGRTYYADSVKGRFTISRDNAKNTVYLQMNSLKPEDTAVYYCDAVLRYTSLSHDYHYKYDYWGQGTQVTVSS | low polyreactivity |
| QVQLVESGGGLVQAGGSLRLSCAASGSIFSVYAMGWYRQAPGKERELVAGITRGGSTYADSVKGRFTISRDNAKNTVYLQMNSLKPEDTAVSYCAADALIATPSWGKYNYWGQGTQVTVSS | high polyreactivity |
| QVQLVESGGGLVQAGGSLRLSCAASGSIFSVYVMGWYRPAPGKERELVATISSGGGTYYADSVKGRFTISRDNAKNTVYLQMNSLKPEDTAVYYCYADWDDWKGDYWGQGTQVTVSS | low polyreactivity |

Source: the nanobody polyreactivity screen of Harvey et al. (2022)
